Results published in patent US20230220439A1 (HUBEL UNIVERSITY, published 2023).

How the values were obtained:
Experiment in all cases: Native-PAGE of mixed CL and Im proteins, 30 min at room temperature
Im9 protein = molecular target: T1, Im9 protein (Escherichia coli, UniProt P13479 1-86)
T1 construct: Expressed from pET23a in E. coli BL21(DE3) and purified on nickel beads; a tag is not described

Im2 protein = molecular target: T2, Im2 protein (Escherichia coli, UniProt P04482 1-86)
T2 construct: Expressed from pET23a in E. coli BL21(DE3) and purified on nickel beads; a tag is not described; also called immunity 2
T2 sequence: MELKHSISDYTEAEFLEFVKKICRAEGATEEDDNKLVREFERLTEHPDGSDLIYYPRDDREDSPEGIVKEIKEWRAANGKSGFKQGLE

Im8 protein = molecular target: T3, Im8 protein (Escherichia coli, UniProt P09881 1-85)
T3 construct: Expressed from pET23a in E. coli BL21(DE3) and purified on nickel beads; a tag is not described
T3 sequence: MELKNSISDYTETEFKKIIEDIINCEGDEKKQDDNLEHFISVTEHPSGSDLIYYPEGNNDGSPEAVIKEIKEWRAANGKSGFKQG

Im7 protein = molecular target: T4, Im7 protein (Escherichia coli, UniProt Q03708 1-87)
T4 construct: Expressed from pET23a in E. coli BL21(DE3) and purified on nickel beads; a tag is not described
T4 sequence: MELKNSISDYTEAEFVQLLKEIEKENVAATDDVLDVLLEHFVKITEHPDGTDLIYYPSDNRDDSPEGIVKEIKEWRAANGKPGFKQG

T1 sequence (P13479 whole entry): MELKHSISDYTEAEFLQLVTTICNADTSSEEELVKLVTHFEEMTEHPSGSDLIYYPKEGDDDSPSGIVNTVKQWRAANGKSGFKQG

B1: CL9 protein (other)
chain: MSKSNEPGKATGEGKPVGDKWLDDAGKDSGAPIPDRIADKLRDKEFESFDDFRETVWEEVSKDPELSKNLNPSNKSSVSKGYSPFTPKNQQVGGRKVYELNHQKPIEQGGEVYDMDNIRVTTPKRNIDIEG
notes: Expressed from pET23a in E. coli BL21(DE3) and purified on nickel beads; a tag is not described
binding result (Im9 protein): binds

B2: CL2 protein (other)
chain: MSKSNEPGKATGEGKPVGDKWLDDAGKDSGAPIPDRIADKLRDKEFENFDDFRETFWEEVSKDPDLSKQFKGSNKTNIQKGKAPFARKKDQVGGRERFELNHQKPIEQDGGVYDMNNIRVTTPKRNIDIEG
notes: as for B1
binding result (Im2 protein): binds

B3: CL8 protein (other)
chain: MSKSNEPGKATGEGKPVGDKWLDDAGKDSGAPIPDRIADKLRDKEFENFDDFRETFWEEVSKDPELSKQFNPGNKKRLSQGLAPRARNKDTVGGRRSFELNHQKPIEQDGGVYDMDNLRITTPKRNIDIEG
notes: as for B1
binding result (Im8 protein): binds

B4: CL7 protein (other)
chain: MSKSNEPGKATGEGKPVNNKWLNNAGKDLGSPVPDRIANKLRDKEFESFDDFRETFWEEVSKDPELSKQFSRNNNDRMKVGKAPKTRTQDVSGKRTSFELNHQKPIEQNGGVYDMDNISVVTPKRNIDIEG
notes: as for B1
binding result (Im7 protein): binds
